The source of these data is patent publication US11078465B2, “Alcohol dehydrogenase mutant and application thereof in synthesis of diaryl chiral alcohols” (Jiangnan University, priority 2018, dated 2021).

The term Km denotes the substrate concentration at which the rate is half of its maximum. One may read the Vmax as the rate approached at saturating substrate.

Holding throughout (format): biochemical
A short description of series [1]: Stereoselectivity on different substrates. To be noted: for Stereoselectivity (ee): configuration in brackets. How it is done: (§1) In an embodiment of the present disclosure, a chromatographic analysis method is as follows: 100 μL of reactant liquid is taken, 500 μL of ethyl acetate is added, shaking is performed for 1-2 min, centrifugation is performed at 12,000 rpm for 2-5 min, supernatant liquid is taken into a centrifuge tube, after an organic phase naturally volatilizes completely, 500 μL of chromatographically pure ethanol is added, and chiral liquid chromatography and gas chromatography are performed to analyze the transformation rate and the ee value.
(§2) Method for determining optical purity ee:
(§3) As: molar concentration of (S)-CPMA obtained by liquid chromatography; and AR: molar concentration of (R)-CPMA obtained by liquid chromatography.
(§4) The reduction on prochiral carbonyl compounds by the alcohol dehydrogenase mutants obtained in Example 3 was studied. The pro-chiral carbonyl compounds include (4-chlorophenyl)-(pyridin-2-yl)-methanone (CPMK), phenyl-(pyridin-2-yl)-methanone, (4-chlorophenyl)-(phenyl)-methanone, (4-bromophenyl)(phenyl)methanone, (4-fluorophenyl)(phenyl)methanone, (4-methoxyphenyl)-(phenyl)-methanone, (4-nitrophenyl)(phenyl)methanone, 1-(pyridin-2-yl)ethanone, acetophenone, 4′-Chloroacetophenone, 4-chlorophenacyl chloride, ethyl 2-oxo-4-phenylbutanoate (OPBE), ethyl 4-chloro-3-oxobutanoate, and methyl 2-oxo-2-phenylacetate.
All the products above were recrystallized from ethyl acetate and gave more than 99.9% optical purity.

Series [2] is described as follows: Stereoselectivity on different substrates. The settings on record: configuration in brackets. How it is done:
as §1, §2, §3, §4

Series [3] in a line: Stereoselectivity (ee) of CPMK reduction, chiral liquid chromatography. To be noted: for e.e.: product configuration in brackets. Summed up:
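ee is calculated from the (S)-CPMA and (R)-CPMA molar concentrations measured by chiral liquid chromatography; conversion also by GC. Samples are ethyl acetate extracts of the reaction, dried and redissolved in ethanol.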

Series [4] in a line: Kinetic analysis of alcohol dehydrogenase and mutants (NADPH oxidation, 340 nm, double reciprocal curve). To be noted: substrate CPMK. How it is done: (§5) Adopting a total reaction system of 200 μL, including: 1.0 mM NADPH, 1.0 mM substrate CPMK and sodium phosphate buffer (PBS, 100 mM, pH 7.0), fully and evenly mixing, maintaining at 30° C. for 2 min, adding an appropriate amount of enzyme solution, and detecting the change in light absorption at 340 nm.
(§6) The enzyme activity was calculated by the following formula: Enzyme activity (U)=EW×V×10^3/(6220×I);
(§7) in the formula, EW is the change in absorbance at 340 nm in 1 min; V is the volume of a reaction solution in mL; 6220 is the molar extinction coefficient of NADPH in L/mol·cm); and 1 is the optical path distance in cm. One activity unit (U) corresponds to the amount of enzyme required to catalyze the oxidation of 1 μmol NADPH per minute under the above conditions.
A column used for purification was a nickel affinity column HisTrap FF crude, and purification was achieved through affinity chromatography using a histidine tag on recombinant protein. The nickel column was equilibrated with a solution A first, a crude enzyme solution was loaded, a penetrating peak was further eluted off using the solution A, and after equilibrium, a solution B (20 mM sodium phosphate, 500 mM NaCl, and 1000 mM imidazole, pH 7.4) was used for gradient elution to elute off the recombinant protein bound to the nickel column, so as to obtain the recombinant alcohol dehydrogenase mutant. The purified protein was subjected to activity measurement (CPMK as substrate, and NADPH as coenzyme) and SDS-PAGE analysis. […] The purified alcohol dehydrogenase protein was then replaced into a Tris-HCl (100 mM, pH 7.0) buffer using a Hi Trap Desalting column (GE Healthcare).
The activity of KpADH at different substrate concentrations and coenzyme concentrations was determined, and a double reciprocal curve was made based on the reciprocal of activity and substrate concentration to calculate kinetic parameters.

Series [5] is described as follows: Substrate specificity, specific activity. How it is done: as §5, §6, §7, §4
[6] abbreviates: substrate [drawing 10], acetophenone.
Where [7] appears, read: substrate [drawing 11], 4-chloroacetophenone.
Setting [8] is: substrate [drawing 12], 4-chlorobenzoyl chloride.
[9] abbreviates: substrate [drawing 16], (4-bromophenyl)-(phenyl)-methanone.
Setting [10] is: substrate [drawing 17], p-nitrobenzophenone.
Where [11] appears, read: substrate [drawing 14], likely CPMK (values partly match Table 4).
[12] abbreviates: substrate [drawing 6], 4-chlorophenacyl chloride.
The mark [13] stands for this setting: substrate [drawing 9], ethyl 4-chloro-3-oxobutanoate.

“Also recorded” adds a separate entry of the source.

B1: E214Q/S237C: glutamine for glutamate at position 214 and cysteine for serine at position 237 of SEQ ID No. 2 (protein)
chain: MSVLISGASGYIAKHIVRVLLEQNYKVIGTVRSQDKADKLLKQYNNPNLSYEIVPEIANLDAFDDIFKKHGKEIKYVIHAASPVNFGAKDLEKDLVIPAINGTKNMFEAIKKYAPDTVERVVMTASYASIMTPHRQNDPTLTLDEETWNPVTEENAYENVFTAYCASKTFAEKEAWKFVKENSDAVKFKLTTIHPSFVFGPQNFDEDVTKKLNQTCEIINGLLHAPFDTKVEKTHFCQFIDVRDVAKTHVLGFQKDELINQRLLLCNGAFSQQDIVNVFNEDFPELKGQFPPEDKDTDLNKGVTGCKIDNEKTKKLLAFEFTPFHKTIHDTVYQILHKEGRV
modifications: Protein translated from synthetic DNA
In the case of B1, the “Stereoselectivity (ee)” value in series [1] (setting [6]) is given as 96.5 (R); in series [1] (setting [7]), 93.5 (R); in series [1] (setting [8]) it was 97.6 (R); in series [1] (setting [9]), 92.6 (R); in series [1] (setting [10]), 93.3 (R); in series [2] (substrate [drawing 13]), 56.6 (R). Further, the “Stereoselectivity (ee)” value is given as 44.6 (S) in series [2] (setting [11]), 88.6 (R) in series [2] (substrate [drawing 15]) and 90.6 (R) in series [2] (substrate [drawing 18]). Moreover, in series [3], the “configuration of product / stereoselectivity in words” value was “inversion from the R configuration to the S configuration; also recorded: (S)-CPMA”. In addition, in series [3], the e.e. is 44.6 (S). In series [4], this molecule had a Kcat of 7.06 ± 0.63 s⁻¹. Besides, the Km in series [4] stood at 550 ± 20 µM. Further, the Vmax in series [4] amounted to 10.59 ± 0.16 µM/min/mg. Moreover, the specific activity in series [5] (substrate [drawing 1]) came out at 0.22 U/mg; in series [5] (substrate [drawing 2]) it was 0.12 U/mg; in series [5] (substrate [drawing 3]), 0.09 U/mg; in series [5] (substrate [drawing 4]) it was 5.65 U/mg; in series [5] (substrate [drawing 5]), 3.65 U/mg; in series [5] (setting [12]), 10.25 U/mg. Besides, the results for the specific activity in series [5] (substrate [drawing 7]), in series [5] (substrate [drawing 8]) and in series [5] (setting [13]) were 9.89 U/mg, 22.65 U/mg and 2.65 U/mg, respectively.

B2: E214R/S237C: arginine for glutamate at position 214 and cysteine for serine at position 237 of SEQ ID No. 2 (protein)
chain: MSVLISGASGYIAKHIVRVLLEQNYKVIGTVRSQDKADKLLKQYNNPNLSYEIVPEIANLDAFDDIFKKHGKEIKYVIHAASPVNFGAKDLEKDLVIPAINGTKNMFEAIKKYAPDTVERVVMTASYASIMTPHRQNDPTLTLDEETWNPVTEENAYENVFTAYCASKTFAEKEAWKFVKENSDAVKFKLTTIHPSFVFGPQNFDEDVTKKLNRTCEIINGLLHAPFDTKVEKTHFCQFIDVRDVAKTHVLGFQKDELINQRLLLCNGAFSQQDIVNVFNEDFPELKGQFPPEDKDTDLNKGVTGCKIDNEKTKKLLAFEFTPFHKTIHDTVYQILHKEGRV
modifications: Protein translated from synthetic DNA
With B2, the “Stereoselectivity (ee)” value in series [1] (setting [6]) is reported as 98.3 (R); in series [1] (setting [7]), 97.2 (R); in series [1] (setting [8]) it was 92.9 (R); in series [1] (setting [9]) it was 89.9 (R); in series [1] (setting [10]), 88.0 (R); in series [2] (substrate [drawing 13]) it was 50.1 (R). The “Stereoselectivity (ee)” value was 48.3 (S) in series [2] (setting [11]), 49.8 (R) in series [2] (substrate [drawing 15]) and 91.9 (R) in series [2] (substrate [drawing 18]). In addition, the “configuration of product / stereoselectivity in words” value in series [3] is on record as “inversion from the R configuration to the S configuration; also recorded: (S)-CPMA”. In addition, in series [3], the e.e. is 48.3 (S). The Kcat in series [4] is 10.4 ± 0.11 s⁻¹. Moreover, the Km in series [4] amounted to 880 ± 20 µM. Besides, in series [4], the Vmax came to 15.6 ± 0.16 µM/min/mg. Further, the specific activity in series [5] (substrate [drawing 1]) worked out at 0.26 U/mg; in series [5] (substrate [drawing 2]), 0.18 U/mg; in series [5] (substrate [drawing 3]), 0.36 U/mg; in series [5] (substrate [drawing 4]) it was 4.21 U/mg; in series [5] (substrate [drawing 5]), 1.96 U/mg; in series [5] (setting [12]) it was 6.69 U/mg. Besides, the results for the specific activity in series [5] (substrate [drawing 7]), in series [5] (substrate [drawing 8]) and in series [5] (setting [13]) were 22.48 U/mg, 30.69 U/mg and 1.88 U/mg, respectively.

B3: E214N/S237C: asparagine for glutamate at position 214 and cysteine for serine at position 237 of SEQ ID No. 2 (protein)
chain: MSVLISGASGYIAKHIVRVLLEQNYKVIGTVRSQDKADKLLKQYNNPNLSYEIVPEIANLDAFDDIFKKHGKEIKYVIHAASPVNFGAKDLEKDLVIPAINGTKNMFEAIKKYAPDTVERVVMTASYASIMTPHRQNDPTLTLDEETWNPVTEENAYENVFTAYCASKTFAEKEAWKFVKENSDAVKFKLTTIHPSFVFGPQNFDEDVTKKLNNTCEIINGLLHAPFDTKVEKTHFCQFIDVRDVAKTHVLGFQKDELINQRLLLCNGAFSQQDIVNVFNEDFPELKGQFPPEDKDTDLNKGVTGCKIDNEKTKKLLAFEFTPFHKTIHDTVYQILHKEGRV
modifications: Protein translated from synthetic DNA
Regarding B3, the “Stereoselectivity (ee)” value was 99.0 (R) in series [1] (setting [6]); 97.4 (R) in series [1] (setting [7]); 93.6 (R) in series [1] (setting [8]); 91.9 (R) in series [1] (setting [9]); 90.7 (R) in series [1] (setting [10]); 51.5 (R) in series [2] (substrate [drawing 13]). The “Stereoselectivity (ee)” value in series [2] (setting [11]) was 57.1 (S); in series [2] (substrate [drawing 15]) it was 57.1 (R); in series [2] (substrate [drawing 18]), 99.1 (S). In addition, in series [1] (substrate p-nitrobenzophenone, (S)), the ee is given as 99.1%. For the same molecule, the “configuration of product / stereoselectivity in words” value in series [3] is given as “inversion from the R configuration to the S configuration; also recorded: (S)-CPMA”. In addition, the e.e. in series [3] is on record as 43.6 (S). The molecule further returned a Kcat in series [4] of 5.87 ± 0.13 s⁻¹. Moreover, in series [4], the Michaelis-Menten constant (Km) was found to be 220 ± 20 µM. For the same molecule, the Vmax in series [4] came out at 8.80 ± 0.20 µM/min/mg. Further, the specific activity in series [5] (substrate [drawing 1]) amounted to 0.84 U/mg; in series [5] (substrate [drawing 2]), 0.52 U/mg; in series [5] (substrate [drawing 3]), 0.32 U/mg; in series [5] (substrate [drawing 4]), 7.50 U/mg; in series [5] (substrate [drawing 5]), 7.48 U/mg; in series [5] (setting [12]), 10.02 U/mg. Besides, the specific activity turned out to be 17.10 U/mg in series [5] (substrate [drawing 7]), 13.21 U/mg in series [5] (substrate [drawing 8]) and 5.80 U/mg in series [5] (setting [13]).
